Measured values published in patent US20250144202A1 (KAIMI BIOMEDICINE CHENGDU, published 2025).

T1: FcγRIIA protein (UniProt P12318 36-218)
T1 construct: also called CD32a
T1 sequence: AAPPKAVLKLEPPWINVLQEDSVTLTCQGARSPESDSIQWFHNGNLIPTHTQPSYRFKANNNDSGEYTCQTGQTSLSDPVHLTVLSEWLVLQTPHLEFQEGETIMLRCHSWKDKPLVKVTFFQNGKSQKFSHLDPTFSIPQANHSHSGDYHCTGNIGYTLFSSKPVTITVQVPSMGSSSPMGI


Target: T1, FcγRIIA protein
Experiment: BLI, multi-concentration (5000 to 312.5 nM of the Fc variant)

Binder	Kd [nM]
Seq2-Sf9 (murine IgG1 Fc variant with three mutations, alanine at positions 223, 228 and 230, expressed in Sf9 insect cells) (other, Fc fragment alone, expressed from the pFastBacHTa-gp64 vector in Sf9 cells and purified by Protein A; about 26 kDa on SDS-PAGE; also called mouse Fc with three mutations) VDKKIVPADCGCAPCICAVPEVSSVFIFPPKPKDVLTITLTPKVTCVVVDISKDDPEVQFSWFVDDVEVHTAQTQPREEQFNSTFRSVSELPIMHQDWLNGKEFKCRVNSAAFPAPIEKTISKTKGRPKAPQVYTIPPPKEQMAKDKVSLTCMITDFFPEDITVEWQWNGQPAENYKNTQPIMDTDGSYFVYSKLNVQKSNWEAGNTFTCSVLHEGLHNHHTEKSLSHSPGL	789
Seq3-Sf9 (murine IgG1 Fc variant with five mutations, alanine at 223, 228 and 230, leucine at 330, glutamic acid at 332, expressed in Sf9 insect cells) (other, Fc fragment alone, expressed from the pFastBacHTa-gp64 vector in Sf9 cells and purified by Protein A; about 26 kDa on SDS-PAGE; also called mouse Fc with five mutations) VDKKIVPADCGCAPCICAVPEVSSVFIFPPKPKDVLTITLTPKVTCVVVDISKDDPEVQFSWFVDDVEVHTAQTQPREEQFNSTFRSVSELPIMHQDWLNGKEFKCRVNSAAFPLPEEKTISKTKGRPKAPQVYTIPPPKEQMAKDKVSLTCMITDFFPEDITVEWQWNGQPAENYKNTQPIMDTDGSYFVYSKLNVQKSNWEAGNTFTCSVLHEGLHNHHTEKSLSHSPGL	450
